# Experimental data as given in paper PMC9714913.
# Target: AMC009 SOSIP gp120-gp41 protomer (HIV-1 (clade B, donor H18877))
# Assay: cryo-EM structure; AMC009 SOSIPv5.2 trimer with 10-fold molar excess of ACS114 Fab for 12 hours at RT, then 6-fold molar excess of ACS122 Fab for 15 minutes; complex purified by SEC in TBS; ~4.0 Å
substance,measurement,value
AMC009 SOSIP gp120-gp41 protomer (complex),stoichiometry N,3
